How the values were obtained:
[1] = target: T1, U1A-ppTG21 conjugate (U1A Cys variant disulfide-linked to ppTG21 endosomolytic peptide); number of ppTG21 not … (Homo sapiens, UniProt P09012 SEQ:2-98); test: BLI; biotin-RNA immobilised; 0.33-333 nM conjugate; not substantially bound; conditions: label: 5' biotin; hairpin
T1 chain: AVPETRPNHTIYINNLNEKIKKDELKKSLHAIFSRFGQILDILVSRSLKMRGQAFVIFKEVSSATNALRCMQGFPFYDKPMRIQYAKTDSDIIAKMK
From the text: (§1) Biolayer interferometry (BLI) was used to assess the capacity of Cas9 RNPs containing sgRNA variants to bind U1A (or U1A-ppTG21 conjugates) as well as to assess the persistence of any binding events. These assays approximated the experimental design described in Richardson et al. (Nat Biotechnol. 2016 March; 34(3):339-44. doi: 10.1038/nbt.3481). These experiments relied on a Cas9 protein covalently, site-specifically labeled with a biotin moiety, allowing loading onto a BLI sensor bearing streptavidin. The instrument used was an Octet Red 384. The buffer used was 20 mM HEPES, pH 7.5, 100 mM KCl, 10% Glycerol, 0.01 mg/ml Heparin, 0.01% IGEPAL. The loading step of the experiment used Cas9 RNP at 20 nM in the wells. U1A wells contained 100 nM, 330 nM, or 1 μM U1A. […] In contrast to the noSL RNP experiment, the SLabub RNP was markedly bound by the U1A, and the binding persisted for the ˜2000 s (˜33 min) duration of the dissociation phase (FIG. 15A). The SLabub RNP experiment was repeated using U1A-ppTG21 conjugate in the wells at concentrations spanning 100 nM to 6 μM (FIG. 15B).
(§2) The concentrations of U1A-ppTG21 conjugate in the wells covered the range of 0.33-333 nM. Substantial binding was observed between the U1 stem loop and the U1A-ppTG21 conjugate, and this binding persisted for the ˜2000 s (˜33 min) of the dissociation phase (FIG. 15C).

[2] = target: T1, U1A-ppTG21 conjugate (U1A Cys variant …); test: BLI; biotin-RNA immobilised; 0.33-333 nM conjugate; binding persists ~2000 s; conditions: label: 5' biotin; hairpin
From the text: as §1, §2

[3] = target: T2, U1A N-terminal RNA-binding domain (Y31H, Q36R; exact Cys variant used in BLI not stated) (Homo sapiens, UniProt P09012 SEQ:2-98); test: BLI; biotin-Cas9 noSL RNP immobilised; 0.1-1 uM U1A; no substantial binding; conditions: tags: none; N-terminal Met removed in E. coli; sgRNA scaffold, no U1A site
T2 chain: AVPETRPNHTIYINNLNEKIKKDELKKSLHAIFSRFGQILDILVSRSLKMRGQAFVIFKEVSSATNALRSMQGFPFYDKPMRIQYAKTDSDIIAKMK
From the text: as §1

[4] = target: T1, U1A-ppTG21 conjugate (U1A Cys variant …); test: BLI; biotin-Cas9 RNP immobilised; 0.1-6 uM conjugate; binding persists ~900 s; conditions: sgRNA with three U1A stem-loop hairpins
From the text: as §1

[5] = target: T2, U1A N-terminal RNA-binding domain …; test: BLI; biotin-Cas9 RNP immobilised; 0.1-1 uM U1A; binding persists ~2000 s; 20 mM HEPES pH 7.5, 100 mM KCl, 0.01 mg/ml heparin; conditions: tags: none; N-terminal Met removed in E. coli; sgRNA with three U1A stem-loop hairpins
From the text: as §1

B1: U2 RNA stem loop negative control (ssRNA)
RNA: AAUCCAUUCAUGUACCGGAUU
binding result [1]: no binding

B2: U1 RNA stem loop 2 (ssRNA)
RNA: AAUCCAUUGCACUCCGGAUU
binding result [2]: binds

B3: noSL sgRNA (EMX1) (ssRNA)
RNA: GUCACCUCCAAUGACUAGGGGUUUAAGAGCUAUGCUGGAAACAGCAUAGCAAGUUUAAAUAAGGCUAGUCCGUUAUCAACUUGAAAAAGUGGCACCGAGUCGGUGCUUUUUUU
binding result [3]: no binding

B4: SLabub sgRNA (EMX1) (ssRNA)
RNA: GUCACCUCCAAUGACUAGGGGUUUAAGAGCUAUGGAUCAUUGCACUCCGAUCCAUAGCAAGUUUAAAUAAGGCUAGUCCGUUAUCAACUUGUCGAGGCUAAGUCGCAUUGCACUCCGCGACAGCACAAGCCCGCUGCCAUUGCACUCCGGCAGCAGGGAACUCGUCAAGUGGCACCGAGUCGGUGCUUUUUUU
binding result [4]: binds | binding result [5]: binds
